Assay results: US20260234655A1, “Nuclear Targeted DNA Delivery and Compositions for Use in Practicing the Same” (Seawolf Therapeutics, Inc., priority 2022, published 2026)

Key:
[1] = system: primary human hepatocytes; test: pDNAs containing DTSs transfected into primary human hepatocytes; GFP by quantitative live-cell imaging and FACS; assay type: cell-based; settings: 24 h post-transfection
Source text: DNA construct design. Each DTS was constructed in pentameric repeat using a 15 bp spacer between each TFBS. The DTS was appended just 5′ to the promoter, effectively in a putative enhancer region. Various promoters were employed in these constructs, including CBh (a variant of the CAG promoter) and TTR. Several reporter genes were employed in these constructs, including enhanced Green Fluorescent Protein (eGFP). The polyadenylation (polyA) signal is a BGH-PolyA sequence. For pooled screening, unique molecular identifiers (UMIs; also known as barcodes) were used to distinguish between DNA constructs in a pool, and the UMIs were appended to the 3′UTR immediately downstream of the stop codon of eGFP, just preceding the BGH-PolyA sequence.
Plasmid DNAs (pDNAs) containing various DTSs were transfected into primary human hepatocytes. GFP expression was quantified 24 h post-transfection by measuring GFP intensity using quantitative live-cell imaging, then cells were harvested and the % of GFP-positive cells was measured by FACS. A strong correlation between total GFP intensity and % GFP-positive cells was observed (FIG. 3A). The DTSs identified as hits (open circles) increased both the GFP intensity and the % GFP-positive cells compared to the Spacer negative control (FIG. 3A). […]

[2] = system: growth-arrested HepG2 cells; test: Pooled DTS screen in growth-arrested HepG2 cells; mRNA abundance by RNA-seq of UMIs; assay type: cell-based
Source text: Library cloning. Pooled DTS libraries were designed as described above. To ensure the highest quality library production of oligos for cloning, oligo lengths were standardized to 300 bp. To accommodate this standardized length the core sequence of each DTS was embedded center-justified in a neutral fragment of random DNA sequence. The flanks of each oligo contained unique golden gate restriction enzyme digestion sites (Bsal) for cloning of double stranded DNA into screening vectors. […] The proper UMI/DTS barcode correlation (termed here the “library registry”) was determined via excision of the hTTR/eGFP fragments, re-ligation of the vector, PCR amplification of the corresponding proximal DTS and UMI regions, and sequencing on an Illumina Miseq (2×150 bp reads). […]
Quantification of mRNA abundance from pooled DTS screens. […] The PCR amplified cDNA was then library prepped (NEBNext library prep for Illumina) and sequenced on an Illumina Miseq (2×150 bp reads). Counts for each UMI were translated into the corresponding DTS using the UMI/Barcode registry and changes in abundance of each DTS were statistically analyzed using a custom R script. The log 2 fold change is calculated by comparing the RNA level in the pool vs. its expected abundance, which is derived from the abundance in the corresponding input DNA pool. […]

B1: NFKB: benchmark DTS with NF-κB binding sites in pentameric repeat (SEQ ID NO: 140) (nucleic acid)
DNA: GGGACTTTCCAGATTACTACTGATAGGGACTTTCCAGATTACTACTGATAGGGACTTTCCAGATTACTACTGATAGGGACTTTCCAGATTACTACTGATAGGGACTTTCC
modifications: DNA nuclear targeting sequence within DNA cargo construct, further chemistry not given here
gene expression compared to the pDNA with no DTS [1]: robust increases | increase in GFP intensity compared to the pDNA with no DTS [1]: ~10 fold | mRNA abundance in pooled screen relative to Spacer negative control [2]: robust increases
